The values that follow come from patent publication US20250064934A1 (CENTURY THERAPEUTICS, published 2025).

Assay [1] deals with T1, CD22 expressed on the cell surface (Raji, Daudi, CHO-CD22 and other CD22+ cells) (UniProt P20273 20-847, limits assumed).
T1 construct: whole, on cells; also called CD22 positive Raji cells; CD22+ Raji cells
T1 sequence (looked up): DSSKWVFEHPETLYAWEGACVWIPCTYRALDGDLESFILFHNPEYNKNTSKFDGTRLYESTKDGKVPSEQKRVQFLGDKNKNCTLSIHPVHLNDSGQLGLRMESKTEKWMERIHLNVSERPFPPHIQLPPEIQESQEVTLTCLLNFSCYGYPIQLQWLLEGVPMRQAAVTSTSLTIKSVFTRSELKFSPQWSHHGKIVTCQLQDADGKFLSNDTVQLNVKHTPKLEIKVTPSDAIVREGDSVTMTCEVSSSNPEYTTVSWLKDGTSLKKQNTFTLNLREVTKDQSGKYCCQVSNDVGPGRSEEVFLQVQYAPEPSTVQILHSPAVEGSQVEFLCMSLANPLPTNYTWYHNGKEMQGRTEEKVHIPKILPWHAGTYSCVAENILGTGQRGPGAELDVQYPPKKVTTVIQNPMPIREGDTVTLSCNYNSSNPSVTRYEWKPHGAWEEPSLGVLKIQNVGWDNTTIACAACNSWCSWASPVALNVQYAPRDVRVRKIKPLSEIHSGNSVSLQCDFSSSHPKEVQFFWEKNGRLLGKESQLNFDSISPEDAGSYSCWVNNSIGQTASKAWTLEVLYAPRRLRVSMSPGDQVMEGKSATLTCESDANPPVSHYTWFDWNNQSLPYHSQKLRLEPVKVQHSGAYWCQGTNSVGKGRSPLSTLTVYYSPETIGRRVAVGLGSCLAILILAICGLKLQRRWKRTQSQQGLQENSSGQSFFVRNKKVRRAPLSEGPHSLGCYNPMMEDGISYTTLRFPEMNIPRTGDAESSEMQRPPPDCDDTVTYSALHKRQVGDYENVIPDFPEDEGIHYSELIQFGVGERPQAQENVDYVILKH
Briefly: cell-based or functional assay.

The target of assay [2] is T1, CD22 expressed on the cell surface …. Kind of assay: flow cytometry on Raji cells, serially diluted VHH-Fc, detection with PE anti-human IgG Fc, % positive cells. The protocol: (§1) VHH-Fc proteins were tested for binding to CD22 expressed on the cell surface. VHH-Fc proteins were serially diluted and added to Raji cells and incubated at 4 C for 30 minutes. Cells were washed once in BD staining buffer, BSA (BD Pharmingen), then PE-labeled anti-human IgG Fc (Jackson Immnoresearch) was added to detect VHH-Fc cell binding and incubated at 4 C for 30 minutes. Cells were washed once, then resuspended in staining buffer with 0.1% pluronic acid and run through a flow cytometer to detect the fluorescent labeling of the VHH-Fc cells.
A general note: Flow cytometry measures light scatter and fluorescence of single cells or particles in a stream.

Assay [3] deals with T2, monomeric CD22 (Acro Biosystems) (UniProt P20273 20-687).
T2 construct: Bought protein; also called CD22 antigen; soluble CD22 protein
T2 sequence (looked up): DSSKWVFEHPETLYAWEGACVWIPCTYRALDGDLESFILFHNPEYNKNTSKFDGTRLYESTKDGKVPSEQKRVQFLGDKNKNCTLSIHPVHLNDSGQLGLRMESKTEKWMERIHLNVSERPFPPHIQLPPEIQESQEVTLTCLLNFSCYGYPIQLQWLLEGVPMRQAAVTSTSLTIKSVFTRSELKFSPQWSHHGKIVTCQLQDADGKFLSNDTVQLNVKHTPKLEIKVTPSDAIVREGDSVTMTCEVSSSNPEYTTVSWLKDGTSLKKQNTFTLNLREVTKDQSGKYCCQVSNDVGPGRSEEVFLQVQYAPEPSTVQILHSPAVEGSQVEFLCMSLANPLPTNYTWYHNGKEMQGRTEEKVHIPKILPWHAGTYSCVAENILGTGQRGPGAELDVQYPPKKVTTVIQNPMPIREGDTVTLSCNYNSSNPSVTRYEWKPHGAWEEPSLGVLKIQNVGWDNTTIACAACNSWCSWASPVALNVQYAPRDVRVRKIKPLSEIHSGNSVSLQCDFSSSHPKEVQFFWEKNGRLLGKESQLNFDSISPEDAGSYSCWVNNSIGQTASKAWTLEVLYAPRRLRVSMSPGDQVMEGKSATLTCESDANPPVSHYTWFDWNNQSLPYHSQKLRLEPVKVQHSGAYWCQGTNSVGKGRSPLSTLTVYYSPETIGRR
Briefly: protein affinity of VHH-IgG1 Fc fusions (summary sentence, method not named there); before affinity maturation. As for the experimental part: (§2) VHH-Fc fusion proteins were assessed for affinity against monomeric CD22 (Acro Biosystems) using the ForteBio Octet Red BLI instrument. VHH-Fc proteins were captured onto an anti-human IgG Fc sensor at 50 nM. Sensor tips were quenched with human IgG Fc protein at 100 nM, then CD22 antigen was added at 250 nM to assess binding kinetics. Association was examined for 600 seconds and dissociation was examined for 600 seconds, allowing for calculation of Kon, Kdis and KD.

The target in assay [4] is T2, monomeric CD22 (Acro Biosystems). Briefly: BLI (ForteBio Octet Red), VHH-Fc captured on anti-human IgG Fc sensor, monomeric CD22 at 250 nM. The protocol: as §2
(In general: Biolayer interferometry detects binding as a change in optical thickness at a sensor tip.)

The target is the same in assay [5]. Kind of assay: protein affinity of VHH-IgG1 Fc fusions (summary sentence, method not named there); after affinity maturation of CDR3. As for the experimental part:
as §2
(§3) The D04 clone was affinity matured by scanning mutagenesis of the CDRs and phage display selections for higher affinity clones. Variants were isolated and expressed as VHH-Fc fusions for affinity assessment.

Assay [6] shares this target. Kind of assay: BLI affinity assessment of VHH-Fc fusions. The protocol:
as §2, §3

Assay [7] has as its target T1, CD22 expressed on the cell surface …. Kind of assay: flow cytometry on Raji cells, PE-labeled anti-human IgG Fc detection. The protocol: FIGS. 1A-C show results of VHH-Fc fusion proteins that were examined by flow cytometry for CD22 cellular binding in Raji cells. […] No binding was seen to Raji CD22 knock-out cells. B) PROT265 and PROT810 (an affinity matured variant of PROT265) bind to Raji cells, with PROT810 showing improved binding relative to PROT265.
as §1

Broadly, the EC50 (read off the curve) is the concentration giving half of the maximal effect. By Kd is commonly meant the equilibrium constant for the complex coming apart. Low readings indicate a tighter complex, high ones a looser complex. What is called koff is the first-order rate constant of dissociation. Low readings indicate a long-lived complex, high ones a short-lived complex. In general, kon refers to the second-order rate constant of association. Low readings indicate slow association, high ones fast association. In general, EC50 refers to the midpoint of the concentration-response curve.

B1: tandem VHH CAR D04_AM_D11-E04 (P1730) (bispecific antibody, part only; not given: which CAR backbone was used, part only)
chain, part: QVQLVESGGGLVQAGGSLRLSCAASGSEFTGYPMGWFRQAPGKEREFVAGSVGIGGSTNYADSVKGRFTISRDNAKNTVYLQMNSLKPEDTAVYYCAADKDYYKPYSRYRTAIRYDTWGQGTQVTVSSGSTSGSGKPGSGEGSTKGEVQLLESGGGLVQPGGSLRLSCAASGFTSSSYVMGWYRQAPGKEREFVSSISTGGDAYYADSVKGRFTISRDNSKNTLYLQMNSLRAEDTAVYYCAADVWYYHGGAYDYWGQGTQVTVSS
B1 came in with a Raji cell killing by CAR-T cells (flow cytometry, 48 hours) in assay [1] of 40%.

B2: PROT265 (D04) VHH-Fc fusion protein (Fc fusion)
chain: QVQLVESGGGLVQAGGSLRLSCAASGSEFTGYPMGWFRQAPGKEREFVAGSVGIGGSTNYADSVKGRFTISRDNAKNTVYLQMNSLKPEDTAVYYCAADKDYYKPYSRYRTVIRYETWGQGTQVTVSS
notes: also called CD22_D04; not shown: human IgG1 Fc domain
As for B2, in assay [2], the “EC50 (read off the curve)” value is about 1 nM. The molecule further returned a Kd in assay [3] of 30 nM. In assay [4], this molecule registered a Kd of 31.9 nM, a koff of 0.00257 s⁻¹ and a kon of 80800 M⁻¹ s⁻¹.

B3: PROT810 (D04-AM-D11) VHH-Fc fusion protein (Fc fusion)
chain: QVQLVESGGGLVQAGGSLRLSCAASGSEFTGYPMGWFRQAPGKEREFVAGSVGIGGSTNYADSVKGRFTISRDNAKNTVYLQMNSLKPEDTAVYYCAADKDYYKPYSRYRTAIRYDTWGQGTQVTVSS
notes: I took that entry to be D04-AM-D11 on the strength of the name; also called DO4-D11-CD22 VHH; not shown: human IgG1 Fc domain
With B3, the Kd in assay [5] is 5 nM. The “fold improvement of affinity over the D04 clone” value in assay [6] was determined as 5 fold. In assay [4], this molecule came in with a Kd of 6.97 nM, a koff of 0.000657 s⁻¹ and a kon of 94300 M⁻¹ s⁻¹.

B4: tandem VHH CAR E04-D04_AM_D11 (P1738) (bispecific antibody, part only; not given: which CAR backbone was used, part only)
chain, part: EVQLLESGGGLVQPGGSLRLSCAASGFTSSSYVMGWYRQAPGKEREFVSSISTGGDAYYADSVKGRFTISRDNSKNTLYLQMNSLRAEDTAVYYCAADVWYYHGGAYDYWGQGTQVTVSSGSTSGSGKPGSGEGSTKGQVQLVESGGGLVQAGGSLRLSCAASGSEFTGYPMGWFRQAPGKEREFVAGSVGIGGSTNYADSVKGRFTISRDNAKNTVYLQMNSLKPEDTAVYYCAADKDYYKPYSRYRTAIRYDTWGQGTQVTVSS
B4: the Raji cell killing by CAR-T cells (flow cytometry, 48 hours) in assay [1] is under 20%.

B5: PROT739 (A01) VHH-Fc fusion protein (Fc fusion)
chain: EVQLLESGGGLVQPGGSLRLSCAASGLTSYSYAMGWYRQAPGKEREFVSAISSGGSAYYADSVKGRFTISRDNSKNTLYLQMNSLRAEDTAVYYCAVGPYYGFRAVTEADYWGQGTQVTVSS
notes: VHH fused to the human IgG1 Fc domain; not shown: human IgG1 Fc domain
B5 registered an EC50 in assay [7] of about 2 nM. In assay [4], the Kd turned out to be 96.1 nM, the off-rate constant (koff) came out at 0.0102 s⁻¹ and the kon was determined as 106000 M⁻¹ s⁻¹.

B6: PROT740 (E04) VHH-Fc fusion protein (Fc fusion)
chain: EVQLLESGGGLVQPGGSLRLSCAASGFTSSSYVMGWYRQAPGKEREFVSSISTGGDAYYADSVKGRFTISRDNSKNTLYLQMNSLRAEDTAVYYCAADVWYYHGGAYDYWGQGTQVTVSS
notes: as for B5
Take B6: the EC50 in assay [7] was about 2 nM. In assay [4], this molecule showed a Kd of 23.3 nM, a koff of 0.000536 s⁻¹ and a kon of 23000 M⁻¹ s⁻¹.
